Measurements from patent publication US20220307001.

Assays:
[1] = tested on: xCas9 3.7 nuclease (evolved SpCas9) (Streptococcus pyogenes); test: cell_activity; details: GUIDE-seq HEK293T
[2] = tested on: xCas9(3.7)-BE3 (Streptococcus pyogenes); test: cell_activity; details: HEK293T; PAM GAA; SD 0.75; >50-fold over SpCas9-BE3

For “EMX1 site sgRNA spacer ; EMX1 site target, GGG PAM”, the activity (on-target reads) ([1]; PAM GGG, zero off-target reads) was 6870.

For “FANCF CGT site sgRNA spacer ; FANCF CGT PAM target”, the activity (on-target reads) ([1]; PAM CGT, no off-target reads) was 3060.

Work on “FANCF GAA site sgRNA spacer ; FANCF GAA PAM target” yielded an activity (on-target reads) ([1]; PAM GAA, no off-target reads) of 3630 and an activity (% C-to-T editing) [2] of 10.
